Reference: US20110065198A1 (NEXIGEN, published 2011)

Experiments:
[1] = biological target: T1, glutathione-S-transferase (GST) alone, not fused to Vif (UniProt P08515 1-218 = GST); assay: GST pull-down, 35S in vitro translated protein, SDS-PAGE autoradiography, FIG. 3c lane 15
Text: (§1) Lanes 7 to 12 represent the respective pull-down results of the afore-mentioned radioactively labelled in vitro translated proteins by GST-Vif glutathione sepharose beads. […] Lanes 13 to 18 represent the control for the specificity of the GST pulldown experiment, i.e. for the binding specificity of the in vitro translated proteins to Vif. Therefore, lanes 13 to 18 in particular represent the results of GST pull-down, wherein GST was used alone, i.e. without being fused to Vif.
(§2) The binding of interaction candidates to Vif was performed with shaking for one hour at room temperature in binding buffer containing 20 mM NaCl, 20 mMTris pH 8.0, 0.5% NP40 and bovine serum albumine 100 μg/ml. After incubation beads were pelleted by spinning at 500 g for 2 min. and 4 washing steps with 1 ml washing buffer (binding buffer without serum albumin) were followed.

[2] = biological target: T1, glutathione-S-transferase (GST) alone, …; assay: GST pull-down, 35S in vitro translated protein, SDS-PAGE autoradiography, FIG. 3b lane 13
[3] = biological target: T1, glutathione-S-transferase (GST) alone, …; assay: GST pull-down, 35S in vitro translated protein, SDS-PAGE autoradiography, FIG. 3c lane 14
Text: as §1, §2

[4] = biological target: T1, glutathione-S-transferase (GST) alone, …; assay: GST pull-down, 35S in vitro translated protein, SDS-PAGE autoradiography, FIG. 3b lane 12

T1 sequence (P08515 whole entry, the tested form may be a part): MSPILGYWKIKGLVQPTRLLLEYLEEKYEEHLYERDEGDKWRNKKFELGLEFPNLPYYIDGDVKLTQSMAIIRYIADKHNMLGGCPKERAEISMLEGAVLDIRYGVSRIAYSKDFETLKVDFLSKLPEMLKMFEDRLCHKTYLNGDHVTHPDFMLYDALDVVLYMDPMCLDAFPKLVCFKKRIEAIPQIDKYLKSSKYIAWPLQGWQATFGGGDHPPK

B1: in vitro translated PTGES3 (other)
chain: RRDYVFIEFCVEDSKDVNVNFEKSKLTFSCLGGSDNFKHLNEIDLFHCIDPNDSKHKRTDRSILCCLRKGESGQSWPRLTKERAKLNWLSVDFNNWKDWEDDSDEDMSNFDRFSEMMNNMGGDEDVDLPEVDGADDDSQDSDDEKMPDLE
- binding result [1]: no binding

Binder: VLIVCVPNPPIDEKNATMPVTMLIRVKTSEDADELHKILLEKKDA (other) [in vitro translated NUP50]
- binding result [2]: no binding

B2: in vitro translated TPT1 (other, human, UniProt P13693 1-172, looked up)
chain: MIIYRDLISHDEMFSDIYKIREIADGLCLEVEGKMVSRTEGNIDDSLIGGNASAEGPEGEGTESTVITGVDIVMNHHLQETSFTKEAYKKYIKDYMKSIKGKLEEQRPERVKPFMTGAAEQIKHILANFKNYQFFIGENMNPDGMVALLDYREDGVTPYMIFFKDGLEMEKC
notes: also called TCTP
- binding result [3]: no binding

B3: in vitro translated HERC4 (other, human, UniProt Q5GLZ8 915-1057, looked up)
chain: AFHAGFHKVCGGKVLLLFQPNELQAMVIGNTNYDWKELEKNTEYKGEYWAEHPTIKIFWEVFHELPLEKKKQFLLFLTGSDRIPILGMKSLKLVIQSTGGGEEYLPVSHTCFNLLDLPKYTEKETLRSKLIQAIDHNEGFSLI
- binding result [4]: no binding
